Reference: the supplement of paper PMC11316812
± gives the standard deviation of the averaged measurements.

How the values were obtained:
hTERT-HMEC = assay: percentage of EdU-negative (G0-arrested) nuclei per well, 72 h; higher = more G0 arrest; conditions: reference: sequence is the full UniProt precursor, the tested protein was the secreted form or ectodomain
MCF7 = assay: as above; conditions: reference: sequence is the full UniProt precursor, the tested protein was the secreted form or ectodomain
[1] = protein concentration 0.0328571 µM
[2] = protein concentration 0.328571 µM
[3] = protein concentration 0.01275 µM
[4] = protein concentration 0.1275 µM
[5] = protein concentration 0.03125 µM
[6] = protein concentration 0.3125 µM
[7] = protein concentration 0.0225 µM
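Further: secreted proteins added to cultured cells, EdU pulse at the end, nuclei found by Hoechst imaging, EdU status from nuclear versus surrounding ring intensity ratio, PBS as neutral control.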

“MSMLVVFLLLWGVTWGPVTEAAIFYETQPSLWAESESLLKPLANVTLTCQAHLETPDFQLFKNGVAQEPVHLDSPAIKHQFLLTGDTQGRYRCRSGLSTGWTQLSKLLELTGPKSLPAPWLSMAPVSWITPGLKTTAVCRGVLRGVTFLLRREGDHEFLEVPEAQEDVEATFPVHQPGNYSCSYRTDGEGALSEPSATVTIEELAAPPPPVLMHHGESSQVLHPGNKVTLTCVAPLSGVDFQLRRGEKELLVPRSSTSPDRIFFHLNAVALGDGGHYTCRYRLHDNQNGWSGDSAPVELILSDETLPAPEFSPEPESGRALRLRCLAPLEGARFALVREDRGGRRVHRFQSPAGTEALFELHNISVADSANYSCVYVDLKPPFGGSAPSERLELHVDGPPPRPQLRATWSGAVLAGRDAVLRCEGPIPDVTFELLREGETKAVKTVRTPGAAANLELIFVGPQHAGNYRCRYRSWVPHTFESELSDPVELLVAES” was tested, and the “percentage of EdU-negative” value (hTERT-HMEC; [1]) was 5.27 ± 0.37%, the “percentage of EdU-negative” value (hTERT-HMEC; [2]) was 10.2 ± 0.85% and the “percentage of EdU-negative” value (MCF7; [1]) was 24.5 ± 4.7%. For the same sequence, the “percentage of EdU-negative” value (MCF7; [2]) was 27.1 ± 2.2%.
“MALPFALMMALVVLSCKSSCSLGCNLSQTHSLNNRRTLMLMAQMRRISPFSCLKDRHDFEFPQEEFDGNQFQKAQAISVLHEMMQQTFNLFSTKNSSAAWDETLLEKFYIELFQQMNDLEACVIQEVGVEETPLMNEDSILAVKKYFQRITLYLMEKKYSPCAWEVVRAEIMRSLSFSTNLQKRLRRKD” was tested, and the “percentage of EdU-negative” value (hTERT-HMEC; protein concentration 0.03 µM) was 21.5 ± 5.7%, the “percentage of EdU-negative” value (hTERT-HMEC; protein concentration 0.3 µM) was 34.2 ± 2.4% and the “percentage of EdU-negative” value (MCF7; protein concentration 0.03 µM) was 49.17 ± 0.42%. For the same sequence, the “percentage of EdU-negative” value (MCF7; protein concentration 0.3 µM) was 48.8 ± 4.3%.
In the case of “MMLRLLSSLLLVAVASGYGPPSSRPSSRVVNGEDAVPYSWPWQVSLQYEKSGSFYHTCGGSLIAPDWVVTAGHCISSSRTYQVVLGEYDRAVKEGPEQVIPINSGDLFVHPLWNRSCVACGNDIALIKLSRSAQLGDAVQLASLPPAGDILPNETPCYITGWGRLYTNGPLPDKLQEALLPVVDYEHCSRWNWWGSSVKKTMVCAGGDIRSGCNGDSGGPLNCPTEDGGWQVHGVTSFVSAFGCNTRRKPTVFTRVSAFIDWIEETIASH”, the “percentage of EdU-negative” value (hTERT-HMEC; protein concentration 0.022 µM) is reported as 5.18 ± 0.89%, the “percentage of EdU-negative” value (hTERT-HMEC; protein concentration 0.22 µM) is reported as 8.27 ± 2% and the “percentage of EdU-negative” value (MCF7; protein concentration 0.022 µM) is reported as 25.2 ± 2.1%. The “percentage of EdU-negative” value (MCF7; protein concentration 0.22 µM) was 29.66 ± 0.19%.
With “MAATSLMSALAARLLQPAHSCSLRLRPFHLAAVRNEAVVISGRKLAQQIKQEVRQEVEEWVASGNKRPHLSVILVGENPASHSYVLNKTRAAAVVGINSETIMKPASISEEELLNLINKLNNDDNVDGLLVQLPLPEHIDERRICNAVSPDKDVDGFHVINVGRMCLDQYSMLPATPWGVWEIIKRTGIPTLGKNVVVAGRSKNVGMPIAMLLHTDGAHERPGGDATVTISHRYTPKEQLKKHTILADIVISAAGIPNLITADMIKEGAAVIDVGINRVHDPVTAKPKLVGDVDFEGVRQKAGYITPVPGGVGPMTVAMLMKNTIIAAKKVLRLEEREVLKSKELGVATN” the “percentage of EdU-negative” value (hTERT-HMEC; [3]) was 4.46 ± 0.17%, the “percentage of EdU-negative” value (hTERT-HMEC; [4]) was 5.45 ± 0.4% and the “percentage of EdU-negative” value (MCF7; [3]) was 24 ± 0.89%. The “percentage of EdU-negative” value (MCF7; [4]) was 29 ± 2%.
For “MAPAGVSLRATILCLLAWAGLAAGDRVYIHPFHLVIHNESTCEQLAKANAGKPKDPTFIPAPIQAKTSPVDEKALQDQLVLVAAKLDTEDKLRAAMVGMLANFLGFRIYGMHSELWGVVHGATVLSPTAVFGTLASLYLGALDHTADRLQAILGVPWKDKNCTSRLDAHKVLSALQAVQGLLVAQGRADSQAQLLLSTVVGVFTAPGLHLKQPFVQGLALYTPVVLPRSLDFTELDVAAEKIDRFMQAVTGWKTGCSLMGASVDSTLAFNTYVHFQGKMKGFSLLAEPQEFWVDNSTSVSVPMLSGMGTFQHWSDIQDNFSVTQVPFTESACLLLIQPHYASDLDKVEGLTFQQNSLNWMKKLSPRTIHLTMPQLVLQGSYDLQDLLAQAELPAILHTELNLQKLSNDRIRVGEVLNSIFFELEADEREPTESTQQLNKPEVLEVTLNRPFLFAVYDQSATALHFLGRVANPLSTA”, the “percentage of EdU-negative” value (hTERT-HMEC; [5]) was 5.56 ± 0.51%, the “percentage of EdU-negative” value (hTERT-HMEC; [6]) was 5.41 ± 0.61% and the “percentage of EdU-negative” value (MCF7; [5]) was 23.9 ± 1.3%. For the same sequence, the “percentage of EdU-negative” value (MCF7; [6]) was 26.5 ± 1.4%.
For “MAFAWWPCLILALLSSLAASGFPRSPFRLLGKRSLPEGVANGIEVYSTKINSKVTSRFAHNVVTMRAVNRADTAKEVSFDVELPKTAFITNFTLTIDGVTYPGNVKEKEVAKKQYEKAVSQGKTAGLVKASGRKLEKFTVSVNVAAGSKVTFELTYEELLKRHKGKYEMYLKVQPKQLVKHFEIEVDIFEPQGISMLDAEASFITNDLLGSALTKSFSGKKGHVSFKPSLDQQRSCPTCTDSLLNGDFTITYDVNRESPGNVQIVNGYFVHFFAPQGLPVVPKNVAFVIDISGSMAGRKLEQTKEALLRILEDMQEEDYLNFILFSGDVSTWKEHLVQATPENLQEARTFVKSMEDKGMTNINDGLLRGISMLNKAREEHRIPERSTSIVIMLTDGDANVGESRPEKIQENVRNAIGGKFPLYNLGFGNNLNYNFLENMALENHGFARRIYEDSDADLQLQGFYEEVANPLLTGVEMEYPENAILDLTQNTYQHFYDGSEIVVAGRLVDEDMNSFKADVKGHGATNDLTFTEEVDMKEMEKALQERDYIFGNYIERLWAYLTIEQLLEKRKNAHGEEKENLTARALDLSLKYHFVTPLTSMVVTKPEDNEDERAIADKPGEDAEATPVSPAMSYLTSYQPPQNPYYYVDGDPHFIIQIPEKDDALCFNIDEAPGTVLRLIQDAVTGLTVNGQITGDKRGSPDSKTRKTYFGKLGIANAQMDFQVEVTTEKITLWNRAVPSTFSWLDTVTVTQDGLSMMINRKNMVVSFGDGVTFVVVLHQVWKKHPVHRDFLGFYVVDSHRMSAQTHGLLGQFFQPFDFKVSDIRPGSDPTKPDATLVVKNHQLIVTRGSQKDYRKDASIGTKVVCWFVHNNGEGLIDGVHTDYIVPNLF”, the “percentage of EdU-negative” value (hTERT-HMEC; [7]) was 4.75 ± 1%, the “percentage of EdU-negative” value (hTERT-HMEC; protein concentration 0.225 µM) was 6.22 ± 0.29% and the “percentage of EdU-negative” value (MCF7; [7]) was 26.1 ± 2.2%. For the same sequence, the “percentage of EdU-negative” value (MCF7; protein concentration 0.225 µM) was 27.2 ± 3.3%.
